From patent publication US20210380703A1 (RIGEL PHARMACEUTICALS, published 2021)
Positions count from the first letter of the chain named.

B1: 367_G11 (antibody, V domains shown)
VH: EVQLLESGGGLVQPGGSLRLSCAASGFTFSSYGMHWVRQAPGKGLEWVASINYNGGYTSYADSVKGRFTISRDNSKNTLYLQMNSLRAEDTAVYYCARAATWHDTHLDYWGQGTLVTVSS
VL: DIQMTQSPSSLSASVGDRVTITCRASQSILTYLNWYQQKPGKAPKLLIYAATSRHSGVPSRFSGSGSGTDFTLTISSLQPEDFATYYCQQSDDSPLTFGGGTKVEIK
notes: Group II
B2: 368_E08 (antibody, V domains shown)
VH: B1 VH with S30D, S50N, G55S, S59G
VL: B1 VL with T31S, L33V, L47V, R54L, D92Y, D93E, S94T
notes: Group II
B3: 368_D07 (antibody, V domains shown)
VH: B1 VH with S30D, S59G
VL: not shown
notes: Group II
B4: 368_E05 (antibody, V domains shown)
VH: B1 VH with S30D, G33S, A49S, T58K
VL: B1 VL with T31S, L47V, H55A, D92Y, D93S
notes: Group II
B5: 368_B12 (antibody, V domains shown)
VH: B1 VH with S30D, A49S, S50G, G55S
VL: B1 VL with L30V, T31S, L33V, H55A, D92Y, S94L
notes: Group II
B6: 368_G11 (antibody, V domains shown)
VH: B1 VH with S30D, A49S, S50G, G55S, T58K, H106A
VL: B1 VL with H55A, D93N, S94T
notes: Group II
B7: 368_A12 (antibody, V domains shown)
VH: B1 VH with S30D, G33S, A49S, G55S, T58K, S59G, T101N, H106A
VL: B1 VL with L47V, H55A, D92Y
notes: Group I
B8: 367_H01 (antibody, V domains shown)
VH: B1 VH with S30D, H35N, A49S, S50G, T58K, T101N, H106A
VL: B1 VL with L47V, H55A, D92Y, S94N
notes: Group I
B9: 368_C07 (antibody, V domains shown)
VH: B1 VH with S50G, G55S
VL: B1 VL with L30V, T31S, L33V, L47V, H55A, D92Y, D93E, S94N
notes: Group II
B10: 368_C09 (antibody, V domains shown)
VH: B1 VH with G33S, A49S, S50N, S59G, T101N
VL: B1 VL with L33V, R54L, H55A, D92Y, S94L
notes: Group I
B11: 368_F10 (antibody, V domains shown)
VH: B1 VH with H35N, S50G, G55S, T101N
VL: B1 VL with L30V, T31S, L33V, H55A, D92Y, S94T
notes: Group I
B12: 368_A06 (antibody, V domains shown)
VH: B1 VH with S30D, G33S, S50G, G55S, T58K, S59G, T101N
VL: B1 VL with T31S, L33V, D92Y, D93N
notes: Group I
B13: 367_H08 (antibody, V domains shown)
VH: B1 VH with S30D, H35N, A49S
VL: B1 VL with L33V, D92Y, D93N, S94L
notes: Group II
B14: 368_B10 (antibody, V domains shown)
VH: B1 VH with S30D, T101N, H106A
VL: B1 VL with L47V, H55A, D93E, S94L
notes: Group I
B15: 368_D06 (antibody, V domains shown)
VH: B1 VH with H35N, A49S, S50N, S59G
VL: B1 VL with T31S, L33V, L47V, D92Y, D93E, S94N
notes: Group II
B16: 368_C04 (antibody, V domains shown)
VH: B1 VH with S30D, A49S, S50N
VL: B1 VL with T31S, L33V, H55A, D92Y, D93S, S94T
notes: Group II
B17: 368_B03 (antibody, V domains shown)
VH: B1 VH with S30D, S31D, H35N, A49S, S50G, T101N, H106A
VL: B1 VL with L47V, R54L, H55A, Q90H, D92Y, D93E, S94N
notes: Group I
B18: 368_A02 (antibody, V domains shown)
VH: B1 VH with S30D, H35N, S50G, T58K, T101N
VL: B1 VL with L30I, T31S, L33V, L47V, H55A, D92Y, S94T
notes: Group I
B19: 368_D03 (antibody, V domains shown)
VH: B1 VH with S31D, G33S
VL: B1 VL with L30I, L33V, A51T, H55A, D92Y, S94L
notes: Group II
B20: 368_H03 (antibody, V domains shown)
VH: B1 VH with S30D, S31D, G33S, S59G
VL: B1 VL with T31S, L33V, L47V, A51V, D92Y, D93S, S94N
notes: Group II
B21: 368_F02 (antibody, V domains shown)
VH: B1 VH with H35N, G55S, T101N
VL: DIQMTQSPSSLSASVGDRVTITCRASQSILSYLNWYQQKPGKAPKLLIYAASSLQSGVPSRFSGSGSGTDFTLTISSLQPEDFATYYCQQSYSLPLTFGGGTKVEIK
notes: Group I
B22: 368_B04 (antibody, V domains shown)
VH: B1 VH with S30D, A49S
VL: B1 VL with L30V, T31S, L47V, H55A, D92Y, D93E, S94N
notes: Group II
B23: 368_B08 (antibody, V domains shown)
VH: B1 VH with S30D, H35N, A49S, T101N
VL: B1 VL with L33V, L47V, H55A, D92Y, D93E, S94N
notes: Group I
B24: 368_D09 (antibody, V domains shown)
VH: B1 VH with S30D, S50G, G55S, T58K, T101N
VL: B1 VL with L30V, T31S, L33V, R54L, H55A, D92Y, S94N
notes: Group I
B25: 368_C12 (antibody, V domains shown)
VH: B1 VH with S30D
VL: B1 VL with H55A, D93S, S94N
notes: Group II
B26: 368_B11 (antibody, V domains shown)
VH: B1 VH with S30D, A49S, S50G, T58K, T101N
VL: B1 VL with T31S, T52S, R54L, H55Q, D92Y
notes: Group I

target: T1, human ACVR2A (human, UniProt P27037 20-135, limits assumed); assay: ELISA
T1 construct: also called activin receptor, type II A
How it was run: (§1)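 mAb binding by ELISA; antigens: hu ACVR2A, mu ACVR2A; pos ctrl biotinylated goat anti-hu kappa LC; neg ctrl hu Fc.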
Note: test concentration or dose not given here.

T1 sequence (P27037 20-135 limits assumed): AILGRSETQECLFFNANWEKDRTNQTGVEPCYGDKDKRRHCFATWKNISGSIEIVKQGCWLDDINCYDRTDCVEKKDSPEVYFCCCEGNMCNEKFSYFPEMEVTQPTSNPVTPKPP

optical density [OD]	Binder
2.56	B1
2.27	B2
2.2	B3
1.87	B4
2.51	B5
2.1	B6
3.01	B7
2.82	B8
2.58	B9
2.48	B10
2.25	B11
2.25	B12
2.27	B13
2.35	B14
2.03	B15
2.48	B16
2.04	B17
2.57	B18
2.39	B19
2.44	B20
2.18	B21
2.27	B22
1.98	B23
2.19	B24
2.49	B25
2.14	B26

target: mouse ACVR2A (mouse, UniProt P27038 20-135, limits assumed); assay: ELISA
How it was run: as §1

Sequence of mouse ACVR2A (P27038 20-135 limits assumed): as the sequence (P27037 20-135 limits assumed) above, with K20R, V73I counted along it

optical density [OD]	Binder
2.67	B1
2.67	B2
2.46	B3
2.07	B4
2.47	B5
2.37	B6
2.78	B7
2.69	B8
2.37	B9
2.61	B10
2.6	B11
2.52	B12
2.47	B13
2.42	B14
2.11	B15
2.47	B16
2.04	B17
2.74	B18
2.55	B19
2.73	B20
2.27	B21
2.73	B22
2.18	B23
2.11	B24
2.45	B25
2.35	B26

target: T2, biotinylated goat anti-human kappa light chain; assay: ELISA, positive control
T2 construct: positive control of the ELISA
How it was run: as §1

optical density [OD]	Binder
3.56	B1
3.5	B2
3.26	B3
3.37	B4
3.49	B5
3.5	B6
3.69	B7
3.65	B8
3.31	B9
3.46	B10
3.52	B11
3.28	B12
3.54	B13
3.02	B14
3.41	B15
3.67	B16
3.38	B17
3.69	B18
3.49	B19
3.56	B20
3.65	B21
3.29	B22
3.21	B23
3.46	B24
3.62	B25
3.61	B26
